Patent US20260132192A1 (XBIOTECH, published 2026)

Target: T1, recombinant human IL-1α (human, UniProt P01583 113-271)
T1 sequence (looked up): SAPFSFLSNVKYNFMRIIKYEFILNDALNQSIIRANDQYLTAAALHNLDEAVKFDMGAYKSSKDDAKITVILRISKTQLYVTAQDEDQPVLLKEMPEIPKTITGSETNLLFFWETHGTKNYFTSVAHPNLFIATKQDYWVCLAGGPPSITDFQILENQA
Test: cell-based or functional assay

B1: human monoclonal antibody designated XIA12 (antibody, V domains shown)
VH: QVQLVQSGAEVKKPGSSVKVSCKASGGRFTNYAILWVRQAPGQGLQWLGGIIPIFDETDHAQDFQDRLTITVDESMTTAYMELSSLRPEDTAIYYCATGSNSYYGLYWGQGTLVTVSS
VL: DIVMTQSPDFLAVSLGERATINCKSSQSVLYSSDNKNYLAWYQQKAGQPPKLLIYWASTRESGVPDRFSGSGSATDFTLTISSLQAEDVAVYYCQQYYSLPITFGQGTRLEIKR
- HUVEC-based potency assay; ICAM-1 expression by flow cytometry after hIL-1α stimulation; IC50: 0.0187 µg/mL
